Reference: patent US20090075291A1, “PEPTIDE-BASED REGULATION OF GAP JUNCTIONS” (The Research Foundation of State University of New York, priority 2006, published 2009)

Tests used:
Cx43CT = biological target: T1, Cx43CT (Rattus norvegicus, UniProt P08050); assay: Non-biased 12-mer phage display screening against Cx43CT; assay type: binding; conditions: 156 phage plaques sequenced after three rounds; pH 6.5
T1 construct: GST (N, cleaved yes); made in house; host or cells: E. coli BL-21
Procedure: A “library” of bacteriophage, displaying ˜[…] of 2.7×10^9 random 12-mer peptides (Ph.D.-12™ Phage display peptide library kit; New England BioLabs Inc.) was utilized. Wells in 24-well plates were coated with 15 μg of recombinant CT and blocked with 5 mg/ml BSA. After removing the unbound viruses by washing with Tris buffered saline containing 0.5% tween-20 (TBS-T), low affinity binders were eluted with a solution of TBS-containing Cx43CT at a concentration of 100 μg/ml. High affinity binders were recovered by overlaying the well with a culture of E. coli, to allow the tightly bound phage to infect the bacteria. This culture was amplified and the virus was precipitated with PEG. The amplified product was used for the subsequent round of panning. All steps were conducted at pH 6.5 unless otherwise indicated.
After three rounds of selection and amplification, the phage recovered from the last round of binding were grown on a lawn of E. coli for plaque purification. Each plaque, representing a single clone, was picked and amplified. The phage were isolated and analyzed by DNA sequencing.
The library was presented to Cx43CT. After three rounds of selection and amplification, DNA of 156 phage plaques was purified and sequenced. Of the estimated 2.7×10^9 different sequences in the library, 48 unique sequences were recovered. […]

cardiac Cx43 = biological target: T2, cardiac Cx43 (Rattus norvegicus, UniProt P08050); assay: GST pulldown of Cx43 from rat heart lysate, western blot; assay type: binding; conditions: GST fusion on glutathione beads, western blot for Cx43
T2 construct: from tissue; host or cells: rat heart lysate
Excerpt: cDNA coding for […] (SEQ ID NO:11) (“NL.RXPE”) was cloned in-frame with the cDNA for glutathione S-transferase (“GST”). The resulting fusion protein, GST-NL.RXPE was produced in bacteria, and purified by conventional methods. GST-NL.RXPE was bound to glutathione beads and exposed to a rat heart lysate. After washing of the supernatant, the pellets were heated to separate the proteins from the beads. Two additional proteins were produced in parallel, and used as control: GST alone (not fused to any peptide) and GST fused to RXPE. After exposure to heart lysate, the resulting complexes that were “fished out” by the bait proteins were run on SDS-PAGE, transferred to a nitrocellulose membrane, and probed with an antibody for Cx43. […] It is expected that other peptides of formula A-An interact with Cx43, and may be used in the methods of the present invention.

[1] = tested on: junctional conductance (Gj) of cell pairs; assay: Heptanol-induced uncoupling of cell pairs, junctional conductance time course; assay type: cell-based; conditions: compared with cell pairs without peptide
Procedure: Cells were treated with heptanol to reduce coupling and with NL.RXPE.

T2 sequence (P08050 whole entry, the tested form may be a part): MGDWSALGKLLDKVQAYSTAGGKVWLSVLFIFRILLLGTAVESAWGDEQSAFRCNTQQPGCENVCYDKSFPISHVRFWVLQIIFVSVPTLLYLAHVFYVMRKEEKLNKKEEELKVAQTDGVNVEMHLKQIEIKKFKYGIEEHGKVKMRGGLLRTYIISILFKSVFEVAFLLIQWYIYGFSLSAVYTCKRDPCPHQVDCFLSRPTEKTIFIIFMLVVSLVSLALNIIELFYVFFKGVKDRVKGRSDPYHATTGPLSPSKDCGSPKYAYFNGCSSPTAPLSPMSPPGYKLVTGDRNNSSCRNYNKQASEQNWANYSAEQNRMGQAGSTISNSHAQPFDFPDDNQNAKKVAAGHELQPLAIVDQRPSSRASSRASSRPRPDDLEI
T1 sequence (P08050 255-382): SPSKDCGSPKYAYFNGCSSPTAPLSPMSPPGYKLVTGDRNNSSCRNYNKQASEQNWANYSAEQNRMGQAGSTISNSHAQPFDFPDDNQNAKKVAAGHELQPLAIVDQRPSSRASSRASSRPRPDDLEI

Q: How did the “Number of phage plaques from which the sequence was recovered” value (Cx43CT) turn out when “PRPTMGNLPDVL (Peptide sequence from phage library)” was run?
A: 45 plaques

Q: “SDDLRSPQLHNHMVRRKPRNPR (RXP-containing peptide) [NL.RXPE]” was tested. Which “Recovery of Cx43 with GST-fused peptide as bait” value (cardiac Cx43) did it give?
A: Cx43 was also recovered

Q: And the “Rate of heptanol-induced uncoupling (normalized Gj)” value [1]?
A: uncoupled at a much slower rate
